Experimental data taken from PMC9351570.

Target: nucleosome: recombinant Xenopus laevis histone octamer assembled on 601 DNA with flanking DNA (Xenopus laevis)

nucleosome sliding, native gel remodeling assay, kobs; 601 + 80 WT nucleosome: 0.006 min⁻¹
Substance: mutant INO80 complex purified from yeast lacking Arp5 (from UniProt P53115 1-1489; P40154 1-320; Q12386 1-881)
